According to patent US20030091568A1, “Inhibitors for the formation of soluble human CD23” (priority 2000, published 2003):

T1: ADAM9 (Homo sapiens, UniProt Q13443)
T1 construct: endogenous in cells
T1 sequence (Q13443 29-819): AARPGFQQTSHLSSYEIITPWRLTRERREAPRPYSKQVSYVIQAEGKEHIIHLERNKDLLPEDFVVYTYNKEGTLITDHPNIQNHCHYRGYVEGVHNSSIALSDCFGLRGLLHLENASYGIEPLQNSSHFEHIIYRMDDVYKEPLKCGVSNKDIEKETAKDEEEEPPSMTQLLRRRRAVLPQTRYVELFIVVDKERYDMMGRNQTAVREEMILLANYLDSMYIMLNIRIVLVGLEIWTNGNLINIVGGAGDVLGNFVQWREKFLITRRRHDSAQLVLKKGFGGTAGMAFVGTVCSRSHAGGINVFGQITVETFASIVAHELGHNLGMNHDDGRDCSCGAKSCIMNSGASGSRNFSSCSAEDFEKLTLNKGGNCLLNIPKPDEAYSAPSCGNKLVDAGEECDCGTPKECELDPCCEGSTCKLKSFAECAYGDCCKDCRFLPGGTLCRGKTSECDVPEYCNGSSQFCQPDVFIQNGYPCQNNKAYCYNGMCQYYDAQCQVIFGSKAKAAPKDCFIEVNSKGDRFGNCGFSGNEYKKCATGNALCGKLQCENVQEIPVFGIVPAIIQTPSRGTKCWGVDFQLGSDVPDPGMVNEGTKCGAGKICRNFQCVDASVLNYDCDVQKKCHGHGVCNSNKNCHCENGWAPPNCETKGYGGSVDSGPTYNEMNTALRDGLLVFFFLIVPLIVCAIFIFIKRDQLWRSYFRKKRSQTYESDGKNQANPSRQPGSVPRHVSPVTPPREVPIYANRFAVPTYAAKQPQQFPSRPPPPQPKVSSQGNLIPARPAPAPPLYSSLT

T2: ADAM10 (Homo sapiens, UniProt O14672)
T2 sequence (O14672 214-748): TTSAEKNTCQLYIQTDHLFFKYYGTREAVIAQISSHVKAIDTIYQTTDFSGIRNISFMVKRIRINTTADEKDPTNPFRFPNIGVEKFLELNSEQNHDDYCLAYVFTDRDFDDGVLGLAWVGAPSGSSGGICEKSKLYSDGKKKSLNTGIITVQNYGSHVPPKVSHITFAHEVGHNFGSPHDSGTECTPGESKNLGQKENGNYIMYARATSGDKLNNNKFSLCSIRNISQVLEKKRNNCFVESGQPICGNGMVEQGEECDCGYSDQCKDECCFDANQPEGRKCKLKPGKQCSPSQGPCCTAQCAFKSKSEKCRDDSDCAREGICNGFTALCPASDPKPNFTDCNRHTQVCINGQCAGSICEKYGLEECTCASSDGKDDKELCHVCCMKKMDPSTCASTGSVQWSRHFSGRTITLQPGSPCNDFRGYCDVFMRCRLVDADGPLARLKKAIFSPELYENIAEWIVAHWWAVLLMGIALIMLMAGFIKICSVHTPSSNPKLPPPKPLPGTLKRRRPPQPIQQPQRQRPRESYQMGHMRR


How the values were obtained:
ADAM9 = biological target: T1, ADAM9; assay: Shedding of CD23 from human B cell line P493-6 (c-myc "On", endogenous ADAM9); format: cell-based; conditions: TIMP concentrations known to inhibit MMPs, MT-MMPs, ADAM10 and ADAM17, FIG. 6a
Source text: TIMP-1, -2 and -3 are known to inhibit all known secreted matrix metalloproteinases (MMPs), membrane-type matrix metalloproteinases (MT-MMPs), as well as ADAM10 (inhibited by TIMP-1 and TIMP-3) and ADAM17 (TACE, inhibited by TIMP-3 only). In contrast, it has been shown that membrane bound ADAM9 is not inhibited by either TIMP-1, -2 or -3 (see Example 3, FIG. 3). Using the human B cell line P493-6 with a tetracycline regulatable c-myc gene allowed the upregulation of endogeneous ADAM9 via upregulation of c-myc. […] The decrease in cell surface bound CD23 correlated with the increase in the s-CD23 concentration in the culture medium assayed by ELISA (CD23 ELISA kit, Becton Dickinson, and CD23 ELISA kit, the Binding Site). […]
To inhibit matrix metalloproteinase activity, aliquots of the cells studied (transfected CHO AA8, […]) were washed three-times in serum free medium and further cultured either in the presence (1 μM TC) or absence of TC for 24-48 h, either in the presence of 2 μM batimastat (BB-94, British Biotechnology) or 20 nM-1 μM of either TIMP-1, -2, or TIMP-3. […] Surface CD23 in the presence of either of the inhibitors was quantitated by FACS analyses using a FITC-labelled monoclonal antibody against human CD23 and compared to cells cultured in the absence of the respective inhibitor. […]

ADAM10 = biological target: T2, ADAM10; conditions: stated as known; cited from earlier work
ADAM17 (TACE) = ADAM17 (TACE) (Homo sapiens, UniProt P78536); conditions: stated as known; cited from earlier work
Sequence of ADAM17 (TACE) (P78536 215-824, species assumed): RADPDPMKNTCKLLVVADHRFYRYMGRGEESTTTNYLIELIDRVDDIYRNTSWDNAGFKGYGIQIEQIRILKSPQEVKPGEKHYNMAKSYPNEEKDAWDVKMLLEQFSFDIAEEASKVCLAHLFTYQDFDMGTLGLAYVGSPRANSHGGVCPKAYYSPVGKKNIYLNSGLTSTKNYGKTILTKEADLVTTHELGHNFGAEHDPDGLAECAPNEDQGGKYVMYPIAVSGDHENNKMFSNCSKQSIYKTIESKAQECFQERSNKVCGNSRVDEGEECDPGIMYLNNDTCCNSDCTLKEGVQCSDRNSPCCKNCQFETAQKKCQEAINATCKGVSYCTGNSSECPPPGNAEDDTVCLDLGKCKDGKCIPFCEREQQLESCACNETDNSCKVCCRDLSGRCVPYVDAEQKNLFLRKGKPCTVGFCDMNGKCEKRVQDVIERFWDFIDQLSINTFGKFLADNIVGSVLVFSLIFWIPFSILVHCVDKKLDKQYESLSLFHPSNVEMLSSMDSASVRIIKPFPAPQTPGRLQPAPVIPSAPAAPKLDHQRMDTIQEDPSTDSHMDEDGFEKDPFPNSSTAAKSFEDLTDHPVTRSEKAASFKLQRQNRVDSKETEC

| Molecule | inhibition of CD23 shedding (s-CD23 in culture medium, ELISA) (ADAM9) | inhibition of ADAM10 (ADAM10) | inhibition of ADAM17 (TACE) (ADAM17 (TACE)) |
| --- | --- | --- | --- |
| TIMP-1: tissue inhibitor of metalloproteinases 1 | could not be inhibited | inhibited | – |
| TIMP-3: tissue inhibitor of metalloproteinases 3 (protein, UniProt P35625 24-211, looked up) Metalloproteinase inhibitor 3: CTCSPSHPQDAFCNSDIVIRAKVVGKKLVKEGPFGTLVYTIKQMKMYRGFTKMPHVQYIHTEASESLCGLKLEVNKYQYLLTGRVYDGKMYTGLCNFVERWDQLTLSQRKGLNYRYHLGCNCKIKSCYYLPCFVTSKNECLWTDMLSNFGYPGYQSKHYACIRQKGGYCSWYRGWAPPDKSIINATDP | could not be inhibited | inhibited | inhibited |
